Experimental data reported in patent US20170184612A1, “USE OF LEUKOCYTES AND NOVEL BIOMARKERS IN THE DIAGNOSIS, CONFIRMATION, AND TREATMENT OF A NEUROLOGICAL DISORDER” (The Trustees of Columbia University in the City of New York, priority 2014, published 2017).

Columns and labels:
[1] = tested on: primary TH+ neurons (SN, VTA, LC); assay: MHC-I induction in murine primary catecholamine neurons, immunofluorescence; assay type: cell-based, mouse
Description: To study the mechanisms underlying the preferential display of MHC-I by catecholamine neurons, primary neuronal cultures of >7 days in vitro prepared from 0-3 day old C57BL/6 mice were examined in the studies herein (Sulzer et al., 2008). DA neurons from VTA and SN and NE neurons of the LC were identified by immunolabel for TH. MHC-I staining was examined using an antibody raised against the H-2K^b and H-2D^b class I mouse alloantigens.
B6.129P2-B2m^tm1Unc/J mice were generated by a targeted disruption of the β2m gene, and have little or no MHC-I protein expression on the cell surface^68. […]
(§1) Images were captured using a Leica SP5 microscope system. There was no fluorescence bleed-through of secondary antibodies under the conditions used. […]
(§2) In order to assess the proportion of TH^+ and MAP-2^+ neurons that expressed MHC-I^+, first TH^+ and MAP-2^+ neurons were counted in 24 fields surrounding the border of the well at 20× magnification. The number of TH^+ or MAP-2^+ neurons with intact soma and two or more neurites equal to or greater than the diameter of the cell soma was counted. […]

[2] = tested on: hES derived spinal motor neuron (MN) cultures; assay: MHC-I induction in hES-derived motor neurons, immunofluorescence; assay type: cell-based, human; details: 100 ng/ml, 72h
Experimental: (§3) hES derived DA neuronal cultures were obtained as described (Kriks et al., 2011). Briefly, H9 human ES cells were subjected to dual SMAD-inhibition followed by exposure to sonic hedgehog, purmorphamine, FGF8 and CHIR99021. Neurons were passaged on day 20, replated on glass-bottom dishes on day 30 at a density of 200.000 cells per 20 μl droplet, and then matured in Neurobasal media with the addition of B27 supplement, GDNF, BDNF, ascorbic acid, cAMP, TGFbeta and DAPT. hES derived spinal motor neuron (MN) cultures expressing EYFP under control of the human synapsin promoter were generated by exposure to dual SMAD-inhibition followed by caudalization with retinoid acid and ventralization through the hedgehog pathway. MN aggregates were replated on day 20 and matured in Neurobasal media with the addition of B27 supplement, GDNF, BDNF, ascorbic acid, cAMP and DAPT.
(§4) Cultures were treated with human IFN-γ (eBioscience) at a non-toxic concentration for hES (100 ng/ml, 72h). Cultures were then incubated with the MHC-I antibody prior to fixation in 4% paraformaldehyde and double immunofluorescence for TH and MHC-I as above. Micrographs were acquired using a Leica TCS SP5-II inverted confocal microscope.

[3] = tested on: hES derived DA neuronal cultures; assay: MHC-I induction in hES-derived DA neurons, immunofluorescence; assay type: cell-based, human; details: 100 ng/ml, 72h
Experimental: as §3, §4

VM DA (TH+) neurons = assay: Antigen processing and presentation, […]-MHC-I immunolabel; assay type: cell-based, mouse; details: OVA 7 days, then IFN-γ 72 h
Experimental: Following exposure of SN neuronal cultures to OVA or vehicle for 7 days, neurons were exposed to IFN-γ or saline for 72 h (note that these cultures were never exposed to […] (SEQ ID NO: 9)). The cultures were then double immunolabeled for TH and an antibody that recognizes only the MHC-I complex when is occupied by […] (SEQ ID NO: 9) ([…]-MHC-I). Occasional label of astrocytes, but not neurons, for […]-MHC-I was observed when the cultures were exposed to the vehicle, IFN-γ, or OVA alone (FIG. 5A). […] The results herein indicate that OVA had been processed to […] (SEQ ID NO: 9) within these mixed neuron/astrocyte cultures and loaded into the MHC-I groove within neuronal cytosol, and that the resulting complex was presented on the neuronal plasma membrane.
IFN-γ (R&D Systems) was used at a range of non-toxic concentrations for neurons or OT-1 cells (10 μg/ml-100 ng/ml, 72h). […]
as §1, §2

B1: IFN-γ: recombinant mouse IFN-γ (R&D Systems) (protein)
chain: HGTVIESLESLNNYFNSSGIDVEEKSLFLDIWRNWQKDGDMKILQSQIISFYLRLFEVLKDNQAISNNISVIESHLITTFFSNSKAKKDAFMSIAKFEVNNPQVQRQAFNELIRVVHQLLPESSLRKRKRSRC
MHC-I (H-2Kb and H-2Db) immunolabel ([1]; neurons from β2m deficient (MHC-I null, KO) mice): did not induce MHC-I
plasma membrane MHC-I expression on TH+ neurons ([1]; wild type C57BL/6 neurons): induced robust plasma membrane neuronal MHC-I expression

B2: human IFN-γ: human IFN-γ (eBioscience), proinflammatory cytokine (protein, UniProt P01579 24-161, looked up)
Interferon gamma: QDPYVKEAENLKKYFNAGHSDVADNGTLFLGILKNWKEESDRKIMQSQIVSFYFKLFKNFKDDQSIQKSVETIKEDMNVKFFNSNKKKRDDFEKLTNYSVTDLNVQRKAIHELIQVMAELSPAAKTGKRKRSQMLFRG
MHC-I expression in mature motor neurons [2]: no MHC-I expression was observed
plasma membrane expression of MHC-I by TH+ neurons [3]: virtually all TH+ neurons

B3: OVA: chicken OVA, a 385 amino acid foreign protein (protein, UniProt P01012 2-386, looked up)
Ovalbumin: GSIGAASMEFCFDVFKELKVHHANENIFYCPIAIMSALAMVYLGAKDSTRTQINKVVRFDKLPGFGDSIEAQCGTSVNVHSSLRDILNQITKPNDVYSFSLASRLYAEERYPILPEYLQCVKELYRGGLEPINFQTAADQARELINSWVESQTNGIIRNVLQPSSVDSQTAMVLVNAIVFKGLWEKAFKDEDTQAMPFRVTEQESKPVQMMYQIGLFRVASMASEKMKILELPFASGTMSMLVLLPDEVSGLEQLESIINFEKLTEWTSSNVMEERKIKVYLPRMKMEEKYNLTSVLMAMGITDVFSSSANLSGISSAESLKISQAVHAAHAEINEAGREVVGSAEAGVDAASVSEEFRADHPFLFCIKHIATNAVLFFGRCVSP
TH+ neurons immunolabeled for SIINFEKL-MHC-I (VM DA (TH+) neurons): ~10%
